Here are results for three molecules from US20020165186, “Compounds that affect CD83 expression, pharmaceutical compositions comprising said compounds and methods for identifying said compounds” (published 2002).

In data set [1] the target is T1, HuR (ELAV, ELAVL1) (Homo sapiens, UniProt Q15717 SEQ:1-326). The data set is described as follows: EMSA. The conditions noted are these: tags: N-terminal GST (pGEX-5X-1), E. coli BL21, label: 32P-UTP. Background: Mobility shift assays separate free from complexed probe on a gel.
Data set [2] has as its target T1, HuR (ELAV, ELAVL1). As to the kind of experiment: SPR; GST-HuR captured on CM5 chip; HBS-EP buffer. The conditions noted are these: tags: N-terminal GST (pGEX-5X-1), E. coli BL21; 3-pronged stem-loop (predicted). From the text:
Specific protein-RNA interactions were detected by Surface Plasmon Resonance using the BIACore X optical biosensor (Pharmacia Biosensor AB, Upsala, Sweden).
The GST-fusion proteins of interest (GST alone or GST-ELAV (HuR)) were immobilized onto the surface of a CM5 Chip (Pharmacia Biosensor AB, Upsala, Sweden) by using the BIACore GST Capture Kit (Pharmacia Biosensor AB, Upsala, Sweden), according to the manufacturers instructions, until a change of at least 1,000 resonance units (RU) was detectable.
1 μg of in vitro transcribed RNA (using the T7/SP6 Riboprobe Kit, Promega, Mannheim, Germany) was diluted in a total volume of 80 μl HBS-EP buffer (10 mM HEPES, 150 mM NaCl, 3 mM EDTA, 0.005% (v/v) polysorbate 20) and was allowed to flow over the chip at a flow rate of 50μl/minute. The standard running buffer was HBS-EP buffer. The sensor surface was regenerated between assays by injecting 30 μl of 0.5 M NaCl to remove bound analyte.

T1 sequence (Q15717 whole entry T180A): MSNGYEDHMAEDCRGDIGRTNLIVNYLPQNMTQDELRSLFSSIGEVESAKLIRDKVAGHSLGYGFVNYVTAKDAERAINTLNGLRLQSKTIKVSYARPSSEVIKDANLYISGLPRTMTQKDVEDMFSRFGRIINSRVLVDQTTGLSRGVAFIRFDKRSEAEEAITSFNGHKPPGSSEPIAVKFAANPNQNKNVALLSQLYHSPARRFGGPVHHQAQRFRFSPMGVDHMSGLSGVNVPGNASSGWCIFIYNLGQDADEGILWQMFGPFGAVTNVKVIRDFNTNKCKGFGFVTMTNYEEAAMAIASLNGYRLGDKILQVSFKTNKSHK

B1: CD83 RNA nt466-618 (stem-loop-2) (ssRNA)
RNA: UUAACACUCAUCAUUUUCACUUGUAAGUUUGCACGGCUACAGAGUAUCUUCCCAGAUUUUUCUAAAGCUGGCAUGGAACGAGCUUUUCUCCCAGUUACCUCCCCAAAUAAGCAUUUAGGGCUAGUGACUCCUCACAAGACAGAACUGGUAUGA
As to B1, the binding result in the data set with HuR (ELAV, ELAVL1) [1] (3-pronged stem-loop (predicted)) was “binds”.

B2: CD83 RNA nt466-615 (stem-loop-2) (ssRNA)
RNA: UUAACACUCAUCAUUUUCACUUGUAAGUUUGCACGGCUACAGAGUAUCUUCCCAGAUUUUUCUAAAGCUGGCAUGGAACGAGCUUUUCUCCCAGUUACCUCCCCAAAUAAGCAUUUAGGGCUAGUGACUCCUCACAAGACAGAACUGGUA
For the molecule B2, the binding result with HuR (ELAV, ELAVL1) [2] was “binds”.

B3: CD83 RNA nt295-465 (stem-loop-1) (ssRNA)
RNA: AGCUGCAACUCGGGGACAUACAGGUGCACUCUGCAGGACCCGGAUGGGCAGAGAAACCUAAGUGGCAAGGUGAUCUUGAGAGUGACAGGAUGCCCUGCACAGCGUAAAGAAGAGACUUUUAAGAAAUACAGAGCGGAGAUUGUCCUGCUGCUGGCUCUGGUUAUUUUCUAC
Take B3: in the data set with HuR (ELAV, ELAVL1) [1] (single stem-loop (nt412-465, predicted)), the binding result was “binds”.
